# According to US20240409634A1 (Janssen / Centocor, published 2024):
# Molecular target: human CD33 on CD33-expressing THP-1 cells (human, UniProt P20138 18-364)
# Experiment: cell-based or functional assay
# Chain of human CD33 on CD33-expressing THP-1 cells (P20138 18-364): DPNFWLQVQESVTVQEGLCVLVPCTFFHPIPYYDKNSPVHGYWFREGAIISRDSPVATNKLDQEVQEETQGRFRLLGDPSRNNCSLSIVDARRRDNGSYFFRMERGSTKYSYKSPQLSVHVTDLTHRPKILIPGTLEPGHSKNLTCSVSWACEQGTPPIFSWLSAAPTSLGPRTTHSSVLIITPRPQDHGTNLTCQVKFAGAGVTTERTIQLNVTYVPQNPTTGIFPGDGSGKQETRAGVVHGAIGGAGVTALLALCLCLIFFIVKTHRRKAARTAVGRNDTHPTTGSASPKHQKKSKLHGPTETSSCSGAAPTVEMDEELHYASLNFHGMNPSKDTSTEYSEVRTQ
Binder,Cytotox EC50 (pM) E:T 1:1 - 22 hrs [pM],Cytotox EC50 (pM) E:T 1:20 - 94 hrs [pM]
"CD33 antibody JL5 combined with Vdelta2 antibody 5D3 (JL5x5D3), Fab (CD33) x VHH (Vδ2) Fc construct (bispecific antibody, human IgG1, lambda, L234A L235A) heavy: QVQLQESGPGLVKPSETLSLTCSVSGASIRNYYWSWIRQTAGKGLEWLGHIYSTGNIHYNPSLKSRVTMSVDTSNNQFSLKLRSVTAADTAVYYCARDNGAALFDYWGQGTLVTVSSASTKGPSVFPLAPSSKSTSGGTAALGCLVKDYFPEPVTVSWNSGALTSGVHTFPAVLQSSGLYSLSSVVTVPSSSLGTQTYICNVNHKPSNTKVDKKVEPKSCDKTHTCPPCPAPEAAGGPSVFLFPPKPKDTLYITREPEVTCVVVSVSHEDPEVKFNWYVDGVEVHNAKTKPREEQYNSTYRVVSVLTVLHQDWLNGKEYKCKVSNKALPAPIEKTISKAKGQPREPQVYTLPPSREEMTKNQVSLSCAVKGFYPSDIAVEWESNGQPENNYKTTPPVLDSDGSFFLVSKLTVDKSRWQQGNVFSCSVMHEALHNRFTQKSLSLSPGK light: not shown EVQLVESGGGLVQAGGSLRLSCAASGRPFSNYAMGWFRQAPGKEREFVTVISWSGGSTYYADSVKGRFTISRDNAKNTVYLQMNSLKPEDTAVYYCAAQFSGASTVVAGTALDYDYWGQGTRVTVSSEPKSSDKTHTCPPCPAPEAAGGPSVFLFPPKPKDTLYITREPEVTCVVVSVSHEDPEVKFNWYVDGVEVHNAKTKPREEQYNSTYRVVSVLTVLHQDWLNGKEYKCKVSNKALPAPIEKTISKAKGQPREPQVYTLPPSREEMTKNQVSLWCLVKGFYPSDIAVEWESNGQPENNYKTTPPVLDSDGSFFLYSKLTVDKSRWQQGNVFSCSVMHEALHNHYTQKSLSLSPGK",12,45
"CD33 antibody JL5 combined with Vdelta2 antibody 6H4 (JL5x6H4), Fab (CD33) x VHH (Vδ2) Fc construct (bispecific antibody, human IgG1, lambda, L234A L235A) heavy: QVQLQESGPGLVKPSETLSLTCSVSGASIRNYYWSWIRQTAGKGLEWLGHIYSTGNIHYNPSLKSRVTMSVDTSNNQFSLKLRSVTAADTAVYYCARDNGAALFDYWGQGTLVTVSSASTKGPSVFPLAPSSKSTSGGTAALGCLVKDYFPEPVTVSWNSGALTSGVHTFPAVLQSSGLYSLSSVVTVPSSSLGTQTYICNVNHKPSNTKVDKKVEPKSCDKTHTCPPCPAPEAAGGPSVFLFPPKPKDTLYITREPEVTCVVVSVSHEDPEVKFNWYVDGVEVHNAKTKPREEQYNSTYRVVSVLTVLHQDWLNGKEYKCKVSNKALPAPIEKTISKAKGQPREPQVYTLPPSREEMTKNQVSLSCAVKGFYPSDIAVEWESNGQPENNYKTTPPVLDSDGSFFLVSKLTVDKSRWQQGNVFSCSVMHEALHNRFTQKSLSLSPGK light: not shown EVQLVESGGGLVQAGGSLRLSCAASGRPFSNYGMGWFRQAPGKKREFVAGISWSGGSTDYADSVKGRFTISRDNAKNTVYLQMNSLKPEDTAVYYCAAVFSGAETAYYPSDDYDYWGQGTQVTVSSEPKSSDKTHTCPPCPAPEAAGGPSVFLFPPKPKDTLYITREPEVTCVVVSVSHEDPEVKFNWYVDGVEVHNAKTKPREEQYNSTYRVVSVLTVLHQDWLNGKEYKCKVSNKALPAPIEKTISKAKGQPREPQVYTLPPSREEMTKNQVSLWCLVKGFYPSDIAVEWESNGQPENNYKTTPPVLDSDGSFFLYSKLTVDKSRWQQGNVFSCSVMHEALHNHYTQKSLSLSPGK",5.4,15
"CD33 antibody JL6 combined with Vdelta2 antibody 5D3 (JL6x5D3), Fab (CD33) x VHH (Vδ2) Fc construct (bispecific antibody, human IgG1, lambda, L234A L235A) heavy: QVQLQESGPGLVKPSETLSLTCTVSGGSISSYYWGWIRQPPGKGLEWIGYIYYSGSTNYNPSLKSRVTISVDTSKNQFSLKLSSVTAADTAVYYCARMWEILGFDPWGQGTLVTVSSASTKGPSVFPLAPSSKSTSGGTAALGCLVKDYFPEPVTVSWNSGALTSGVHTFPAVLQSSGLYSLSSVVTVPSSSLGTQTYICNVNHKPSNTKVDKKVEPKSCDKTHTCPPCPAPEAAGGPSVFLFPPKPKDTLMISRTPEVTCVVVSVSHEDPEVKFNWYVDGVEVHNAKTKPREEQYNSTYRVVSVLTVLHQDWLNGKEYKCKVSNKALPAPIEKTISKAKGQPREPQVYTLPPSREEMTKNQVSLSCAVKGFYPSDIAVEWESNGQPENNYKTTPPVLDSDGSFFLVSKLTVDKSRWQQGNVFSCSVMHEALHNRFTQKSLSLSPGK light: not shown EVQLVESGGGLVQAGGSLRLSCAASGRPFSNYAMGWFRQAPGKEREFVTVISWSGGSTYYADSVKGRFTISRDNAKNTVYLQMNSLKPEDTAVYYCAAQFSGASTVVAGTALDYDYWGQGTRVTVSSEPKSSDKTHTCPPCPAPEAAGGPSVFLFPPKPKDTLMISRTPEVTCVVVSVSHEDPEVKFNWYVDGVEVHNAKTKPREEQYNSTYRVVSVLTVLHQDWLNGKEYKCKVSNKALPAPIEKTISKAKGQPREPQVYTLPPSREEMTKNQVSLWCLVKGFYPSDIAVEWESNGQPENNYKTTPPVLDSDGSFFLYSKLTVDKSRWQQGNVFSCSVMHEALHNHYTQKSLSLSPGK",63,~560
"CD33 antibody JL3 combined with Vdelta2 antibody 6H4 (JL3x6H4), Fab (CD33) x VHH (Vδ2) Fc construct (bispecific antibody, human IgG1, lambda, L234A L235A) heavy: QVQLQESGPGLVKPSETLSLTCSVSGGSIRNYYWSWIRQSAGKELEWFGHIFSTGHINYDSSLKSRVTMSVDTSNNQFSLKLRSVTAADTAVYYCARDNGAALFDFWGQGTLVTVSSASTKGPSVFPLAPSSKSTSGGTAALGCLVKDYFPEPVTVSWNSGALTSGVHTFPAVLQSSGLYSLSSVVTVPSSSLGTQTYICNVNHKPSNTKVDKKVEPKSCDKTHTCPPCPAPEAAGGPSVFLFPPKPKDTLMISRTPEVTCVVVSVSHEDPEVKFNWYVDGVEVHNAKTKPREEQYNSTYRVVSVLTVLHQDWLNGKEYKCKVSNKALPAPIEKTISKAKGQPREPQVYTLPPSREEMTKNQVSLSCAVKGFYPSDIAVEWESNGQPENNYKTTPPVLDSDGSFFLVSKLTVDKSRWQQGNVFSCSVMHEALHNRFTQKSLSLSPGK light: not shown EVQLVESGGGLVQAGGSLRLSCAASGRPFSNYGMGWFRQAPGKKREFVAGISWSGGSTDYADSVKGRFTISRDNAKNTVYLQMNSLKPEDTAVYYCAAVFSGAETAYYPSDDYDYWGQGTQVTVSSEPKSSDKTHTCPPCPAPEAAGGPSVFLFPPKPKDTLMISRTPEVTCVVVSVSHEDPEVKFNWYVDGVEVHNAKTKPREEQYNSTYRVVSVLTVLHQDWLNGKEYKCKVSNKALPAPIEKTISKAKGQPREPQVYTLPPSREEMTKNQVSLWCLVKGFYPSDIAVEWESNGQPENNYKTTPPVLDSDGSFFLYSKLTVDKSRWQQGNVFSCSVMHEALHNHYTQKSLSLSPGK",2.5,12
"CD33 antibody JL6 combined with Vdelta2 antibody 6H4 (JL6x6H4), Fab (CD33) x VHH (Vδ2) Fc construct (bispecific antibody, human IgG1, lambda, L234A L235A) heavy: QVQLQESGPGLVKPSETLSLTCTVSGGSISSYYWGWIRQPPGKGLEWIGYIYYSGSTNYNPSLKSRVTISVDTSKNQFSLKLSSVTAADTAVYYCARMWEILGFDPWGQGTLVTVSSASTKGPSVFPLAPSSKSTSGGTAALGCLVKDYFPEPVTVSWNSGALTSGVHTFPAVLQSSGLYSLSSVVTVPSSSLGTQTYICNVNHKPSNTKVDKKVEPKSCDKTHTCPPCPAPEAAGGPSVFLFPPKPKDTLMISRTPEVTCVVVSVSHEDPEVKFNWYVDGVEVHNAKTKPREEQYNSTYRVVSVLTVLHQDWLNGKEYKCKVSNKALPAPIEKTISKAKGQPREPQVYTLPPSREEMTKNQVSLSCAVKGFYPSDIAVEWESNGQPENNYKTTPPVLDSDGSFFLVSKLTVDKSRWQQGNVFSCSVMHEALHNRFTQKSLSLSPGK light: not shown EVQLVESGGGLVQAGGSLRLSCAASGRPFSNYGMGWFRQAPGKKREFVAGISWSGGSTDYADSVKGRFTISRDNAKNTVYLQMNSLKPEDTAVYYCAAVFSGAETAYYPSDDYDYWGQGTQVTVSSEPKSSDKTHTCPPCPAPEAAGGPSVFLFPPKPKDTLMISRTPEVTCVVVSVSHEDPEVKFNWYVDGVEVHNAKTKPREEQYNSTYRVVSVLTVLHQDWLNGKEYKCKVSNKALPAPIEKTISKAKGQPREPQVYTLPPSREEMTKNQVSLWCLVKGFYPSDIAVEWESNGQPENNYKTTPPVLDSDGSFFLYSKLTVDKSRWQQGNVFSCSVMHEALHNHYTQKSLSLSPGK",6.2,30
